Assay [1] has as its target purified human Glu-plasminogen (American Diagnostica, 98% Glu-type plasminogen) (human) (UniProt P00747).
The target is the same in assay [2]. This is another data set of the same source.
Assay [3] has as its target native, full-length mature SK protein derived from Streptococcus equisimilus (nSK) (Streptococcus equisimilus).
Assay [4] concerns the target rSK (fusion protein with maltose binding protein linked to the amino terminus of nSK) (Streptococcus equisimilis (SK part)).

Turning to “native, full-length mature SK protein derived from Streptococcus equisimilus (nSK)”, the amidolytic kinetic parameters of the SK-PAC on S2251: Km (µM), Kcat (S^-1), kcat/Km (µM^-1 S^-1) in assay [1] came to 0.226 µM^-1 S^-1. Also, the lag phase of plasminogen activation (S2251 hydrolysis, absorption at 405 nm, 21° C.) in assay [2] was under 50 s.
As for plasmin (from UniProt P00747) (enzyme), the figures for the cleavage of SK by plasmin after mixing with excess Glu-plasminogen (immunoblot with monoclonal anti-SK antibodies) in assay [3] and in assay [4] were under 30 s and 1 min, respectively.

The values above are taken from patent US5854049.
